Results as given in paper PMC5493754, “Myosin 7 and its adaptors link cadherins to actin” (Nature Communications, 2017).
Residue numbers refer to the chain shown, from its start. Numbers in names are those of the source.

T1: YFP-Full length (FL)-harmonin (harmonin-a1) (human, UniProt Q9Y6N9-1 1-552)
T1 construct: Harmonin-a1 (USH1C), human, residues 1-552 of UniProt Q9Y6N9-1; also called ^YFPFL (isoA); ^YFPFL; source: E. coli BL21 (DE3) Rosetta, purified (Glutathione Sepharose 4B, size-exclusion chromatography)
T1 sequence (looked up): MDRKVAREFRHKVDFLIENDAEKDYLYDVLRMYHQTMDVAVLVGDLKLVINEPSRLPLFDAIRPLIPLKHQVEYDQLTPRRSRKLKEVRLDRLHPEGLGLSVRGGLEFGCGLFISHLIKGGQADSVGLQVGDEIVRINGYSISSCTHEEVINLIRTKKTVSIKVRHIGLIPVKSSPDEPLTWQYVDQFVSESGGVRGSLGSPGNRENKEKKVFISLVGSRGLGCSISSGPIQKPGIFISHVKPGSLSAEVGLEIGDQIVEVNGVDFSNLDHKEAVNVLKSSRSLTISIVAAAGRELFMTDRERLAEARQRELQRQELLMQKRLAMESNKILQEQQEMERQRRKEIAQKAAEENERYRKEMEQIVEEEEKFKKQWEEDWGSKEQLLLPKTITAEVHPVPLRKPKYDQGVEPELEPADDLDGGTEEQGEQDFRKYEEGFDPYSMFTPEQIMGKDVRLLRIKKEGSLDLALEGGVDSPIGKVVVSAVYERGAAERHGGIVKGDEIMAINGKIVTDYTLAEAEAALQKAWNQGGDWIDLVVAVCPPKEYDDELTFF

T2: YFP-Myosin 7b MF2 (human, UniProt Q6PIF6 1605-2116)
T2 construct: Myosin 7b, human, MF2, residues 1605-2116 of UniProt Q6PIF6; pET14-YFP vector; also called ^YFPM7b MF2; source: E. coli (BL21-AI, BL21 (DE3) Rosetta or BL21-Gold (DE3)), purified (Histrap, CaptoQ, gel filtration)
T2 sequence (looked up): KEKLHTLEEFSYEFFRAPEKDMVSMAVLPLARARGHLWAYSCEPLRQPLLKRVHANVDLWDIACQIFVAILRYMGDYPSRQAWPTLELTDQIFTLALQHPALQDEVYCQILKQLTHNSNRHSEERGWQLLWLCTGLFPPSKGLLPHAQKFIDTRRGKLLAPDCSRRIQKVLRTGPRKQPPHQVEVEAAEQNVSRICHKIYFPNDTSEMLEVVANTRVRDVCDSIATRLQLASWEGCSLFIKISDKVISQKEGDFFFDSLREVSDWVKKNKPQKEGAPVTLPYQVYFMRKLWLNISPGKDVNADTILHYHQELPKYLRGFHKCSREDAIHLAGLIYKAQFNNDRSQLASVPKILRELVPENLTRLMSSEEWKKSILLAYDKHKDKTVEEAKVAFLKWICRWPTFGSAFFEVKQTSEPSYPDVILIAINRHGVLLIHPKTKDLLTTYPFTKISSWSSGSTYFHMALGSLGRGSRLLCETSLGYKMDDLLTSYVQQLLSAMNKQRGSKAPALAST

B1: Myosin 7a MF2 (domain or fragment, human, UniProt Q13402-1 1702-2215, looked up)
chain: TAEPEVRAKPYTLEEFSYDYFRPPPKHTLSRVMVSKARGKDRLWSHTREPLKQALLKKLLGSEELSQEACLAFIAVLKYMGDYPSKRTRSVNELTDQIFEGPLKAEPLKDEAYVQILKQLTDNHIRYSEERGWELLWLCTGLFPPSNILLPHVQRFLQSRKHCPLAIDCLQRLQKALRNGSRKYPPHLVEVEAIQHKTTQIFHKVYFPDDTDEAFEVESSTKAKDFCQNIATRLLLKSSEGFSLFVKIADKVLSVPENDFFFDFVRHLTDWIKKARPIKDGIVPSLTYQVFFMKKLWTTTVPGKDPMADSIFHYYQELPKYLRGYHKCTREEVLQLGALIYRVKFEEDKSYFPSIPKLLRELVPQDLIRQVSPDDWKRSIVAYFNKHAGKSKEEAKLAFLKLIFKWPTFGSAFFEVKQTTEPNFPEILLIAINKYGVSLIDPKTKDILTTHPFTKISNWSSGNTYFHITIGNLVRGSKLLCETSLGYKMDDLLTSYISQMLTAMSKQRGSRSGK
notes: Myosin 7a, human, C-terminal MyTH4-FERM domain (MF2), residues 1702-2215 of UniProt Q13402-1; Thrombin site of the vector replaced by an SSG linker; also called M7a MF2; Myo7a MF2; source: E. coli (BL21-AI, BL21 (DE3) Rosetta or BL21-Gold (DE3)), purified (Histrap, CaptoQ, gel filtration)
B2: Myosin 7b MF2 (domain or fragment, human, UniProt Q6PIF6 1605-2116, looked up)
chain: T2 sequence (looked up)
notes: also called M7b MF2; Myo7b MF2; source: E. coli (BL21-AI, BL21 (DE3) Rosetta or BL21-Gold (DE3)), purified (Histrap, CaptoQ, gel filtration)
B3: YFP-Harmonin-a PDZ3c E469A-I476W (domain or fragment, human, UniProt Q9Y6N9-1 428-552, looked up)
chain: QDFRKYEEGFDPYSMFTPEQIMGKDVRLLRIKKEGSLDLALAGGVDSPWGKVVVSAVYERGAAERHGGIVKGDEIMAINGKIVTDYTLAEAEAALQKAWNQGGDWIDLVVAVCPPKEYDDELTFF
notes: Harmonin-a1 (USH1C), human, residues 428-552 of UniProt Q9Y6N9-1; also called ^YFPPDZ3c (isoA) E469A-I476W; source: E. coli BL21 (DE3) Rosetta, purified similarly as wild type
B4: YFP-Harmonin-a PDZ3c I476W (domain or fragment, human, UniProt Q9Y6N9-1 428-552, looked up)
chain: B3 chain with A42E
notes: Harmonin-a1 (USH1C), human, residues 428-552 of UniProt Q9Y6N9-1; also called ^YFPPDZ3c (isoA) I476W; source: E. coli BL21 (DE3) Rosetta, purified similarly as wild type
B5: YFP-Harmonin-a PDZ3c E469A (domain or fragment, human, UniProt Q9Y6N9-1 428-552, looked up)
chain: B3 chain with W49I
notes: Harmonin-a1 (USH1C), human, residues 428-552 of UniProt Q9Y6N9-1; also called ^YFPPDZ3c (isoA) E469A; PDZ3 E469A; source: E. coli BL21 (DE3) Rosetta, purified similarly as wild type
B6: Harmonin-a PDZ3c D546R (domain or fragment, human, UniProt Q9Y6N9-1 428-552, looked up)
chain: B3 chain with A42E, W49I, D119R
notes: Harmonin-a1 (USH1C), human, residues 428-552 of UniProt Q9Y6N9-1; also called PDZ3c (isoA) D546R; source: E. coli BL21 (DE3) Rosetta, purified similarly as wild type
B7: Harmonin NPDZ1.PDZ2 (domain or fragment, human, UniProt Q9Y6N9-1 1-301, looked up)
chain: MDRKVAREFRHKVDFLIENDAEKDYLYDVLRMYHQTMDVAVLVGDLKLVINEPSRLPLFDAIRPLIPLKHQVEYDQLTPRRSRKLKEVRLDRLHPEGLGLSVRGGLEFGCGLFISHLIKGGQADSVGLQVGDEIVRINGYSISSCTHEEVINLIRTKKTVSIKVRHIGLIPVKSSPDEPLTWQYVDQFVSESGGVRGSLGSPGNRENKEKKVFISLVGSRGLGCSISSGPIQKPGIFISHVKPGSLSAEVGLEIGDQIVEVNGVDFSNLDHKEAVNVLKSSRSLTISIVAAAGRELFMTDR
notes: Harmonin-a1 (USH1C), human, N-terminal domain, PDZ1 and PDZ2, residues 1-301 of UniProt Q9Y6N9-1; source: E. coli BL21 (DE3) Rosetta, purified (Glutathione Sepharose 4B, size-exclusion chromatography)

Experiments:
Conditions in all cases: both partners purified
[1] = target: T1, YFP-Full length (FL)-harmonin …; experiment: MST; as a1 but 150 mM NaCl (for FL-Harmonin-a); YFP-fused partner constant at 100 nM, non-fluorescent protein titrated
Myosin 7b MF2 = target: B2; experiment: MST; YFP-fused partner constant at 100 nM, non-fluorescent protein titrated (16 two-fold dilutions); 20 mM Hepes pH 7.0, 100 mM NaCl, 1 mM EGTA, 0.5 mM TCEP, 0.05% Tween 20; Monolith NT.115
Myosin 7a MF2 = target: B1; experiment: as above
YFP-Myosin 7b MF2 = target: T2, YFP-Myosin 7b MF2; experiment: as above
[2] = target: T1, YFP-Full length (FL)-harmonin …; experiment: MST; as a1 but 150 mM NaCl (for FL-Harmonin-a); YFP-fused partner constant at 100 nM, non-fluorescent protein titrated; remark: listed apart in the source

Kd (Myosin 7b MF2)	Kd (Myosin 7a MF2)	Binder	also measured
–	–	B1	Kd [1]: 2.36 µM
–	–	B2	Kd [1]: 2.05 ± 0.79 µM
38.1 ± 4.9 µM	70.4 ± 7.2 µM	B3	–
18.1 ± 1.4 µM	17.8 ± 1.1 µM	B4	–
6.11 ± 0.44 µM	5.4 ± 1.5 µM	B5	–
–	–	B6	Kd (YFP-Myosin 7b MF2): > 300 µM
–	–	B7	Kd [2]: 3.4 ± 0.1 µM
